Test results as given in patent US20030092613A1, “Alpha7 nicotinic receptor peptides as ligands for beta amyloid peptides” (priority 2000, published 2003).

Molecular target: β-amyloid1-42 (UniProt P05067)
Assay: cell-based or functional assay

Substance	ACh rel % Inh @ 100 µM [%]	Inh ACh rel IC50 [µM]
(Ac)FYEC (peptide)	54	< 10
(Ac)YECC-amide (peptide)	62	< 10
